Measurements from US20200270345A1 (JOINT STOCK COMPANY BIOCAD, published 2020).
Changes are numbered by the printed parent chain.

B1: BCD106-02_L.Alecto.VHHSel2_MP1_H10_78 (VHH)
VHH: QVKLEESGGGLVQPGGSLRLSCAASRSISSINAMNWYRQAPGKRREWVAQITGEGITNYRDSVKGRFTITSDNAKNTMYLQMNSLKPEDTAVYYCNAFVIHTTSEVYWGQGTLVTVSS
notes: Llama anti-CD47 VHH tested as E. coli culture supernatant; not shown: myc and His6 tags at the C-terminus of the VHH (pET-22)
B2: BCD106-02_L.Alecto.VHHSel2_MP1_G7_53 (VHH)
VHH: QVKLEESGGGLVQPGGSLTLSCAASGIISSINAMNWYRQAPGKRREWVAQITGEGITNCRDSWKGRFSITSDSANNTMYLQMNNLKPDDTDVYYCNAFVIHTTSEIYWGLGTTVTVSS
notes: as for B1
B3: BCD106-02_L.Alecto.VHHSel2_MP1_G5_37 (VHH)
VHH: AVQLVDSGGGLVQPGGSLRLSCAASRSIFSINAMNWYRQAPGNRREWVAQITDEGITNYVDSVKGRFTITRDNAKNTMYLQMNSLKPEDTAVYYCNAFVITTTSEIYWGQGTTVTVSS
notes: as for B1
B4: BCD106-02_L.Alecto.VHHSel2_MP1_F10_76 (VHH)
VHH: B3 VHH with A1D, D6E, S27N, N43K, D53S, T102A, T103S, I106V
notes: as for B1
B5: BCD106-02_L.Alecto.VHHSel2_MP1_C7_49 (VHH)
VHH: B3 VHH with A40P
notes: as for B1
B6: BCD106-02_L.Alecto.VHHSel2_MP1_B9_64 (VHH)
VHH: DVQLVESGGGLVQPGGSLTLSCAASRNIFRINAMNWYRQAPGKRREWVAPITSEGITNYVDSVKGRFTITRDNAKNTMYLQMNSLKPEDTAVYYCNACLITASSEVYWGQGTLVTVSS
notes: as for B1

Molecular target: T1, human CD47-Fc (human, UniProt Q08722 19-134)
T1 construct: Leu19-Val134 is the natural numbering printed; also called human CD47-Fc receptor; human CD47-Fc (Biocad); not shown: Fc tag of the expression plasmid
Experiment: BLI (Octet Red 96), CD47-Fc on ARG2 sensor, VHH in growth medium, 1:1 model
Description: VHH antibody fragments were measured to provide an example of analysis of kinetic parameters of interaction of antibody fragments that specifically bind to CD47 receptor. Dissociation constant (kdis)-based comparative screening for VHH fragments was performed using Octet Red 96 and ARG2 amino-reactive biosensors (Pall-ForteBio). Affinity constants can be calculated based on the exact protein concentration in the test solution, and, since cell growth media were used as a protein solution and protein concentrations were not measured, the candidates were compared to each other by using the dissociation constant thereof. Biosensors were pre-rehydrated for an hour in water. After activating biosensors, CD47-Fc at a concentration of 10 μg/ml in acetate buffer pH4 was non-specifically (by NH2 groups) immobilized onto the biosensor. The sensors were then immersed into wells containing cell growth medium with specific VHHs (from about 1 μg of VHH in 1 ml of medium), where the complex was associated. The sensors were then immersed in a buffer solution, where the subsequent stage of dissociation of the complex took place. 1/10 of the volume of 10× working buffer was added to the test specimens in E. Coli growth medium containing anti-CD47 VHH fragments. The obtained curves were analyzed using OctetDataAnalysis (version 7.0) according to the standard procedure with 1:1 interaction model.

T1 sequence (Q08722 19-134): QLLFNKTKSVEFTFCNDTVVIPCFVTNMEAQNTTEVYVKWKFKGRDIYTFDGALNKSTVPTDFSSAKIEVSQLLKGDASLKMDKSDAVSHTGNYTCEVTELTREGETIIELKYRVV

**Q.** With B1 as the molecule, how does the koff read?
**A.** The koff was 0.006 s⁻¹.

**Q.** Which koff does the source give for B2 here?
**A.** The koff was 0.008 s⁻¹.

**Q.** How did the koff turn out when B3 was run?
**A.** The koff was 0.006 s⁻¹.

**Q.** B4 was tested. Which koff did it give?
**A.** Its koff is 0.01 s⁻¹.

**Q.** B5 was tested. Which koff did it give?
**A.** The koff was 0.005 s⁻¹.

**Q.** B6 was tested. Which koff did it give?
**A.** Its koff is 0.008 s⁻¹.

Molecular target: T1, human CD47-Fc
Experiment: competitive ELISA without VHH: uninhibited SIRP-Fc / CD47-Fc signal

**Q.** How did the OD units, competitive screening to SIRP-Fc turn out when “SIRP-Fc ligand (BIOCAD) (from UniProt P78324 31-370) (Fc fusion)” was run?
**A.** Its OD units, competitive screening to SIRP-Fc is 0.481 OD units.

Molecular target: CD47 proprietary (human, UniProt Q08722 19-134, limits assumed)
Experiment: ELISA on CD47 proprietary, 450 nm

CD47 proprietary, sequence (Q08722 19-134 limits assumed): as the sequence (Q08722 19-134) above

**Q.** How did the “OD units, binding on CD47 proprietary” value turn out when B1 was run?
**A.** The value was 0.448 OD units.

**Q.** Which “OD units, binding on CD47 proprietary” value does the source give for B2 here?
**A.** The value was 0.498 OD units.

**Q.** For B3, which “OD units, binding on CD47 proprietary” value is on record?
**A.** Its value is 0.426 OD units.

**Q.** With B4 as the molecule, how does the “OD units, binding on CD47 proprietary” value read?
**A.** Its value is 0.312 OD units.

**Q.** For B5, which “OD units, binding on CD47 proprietary” value is on record?
**A.** The value was 0.379 OD units.

**Q.** B6 was tested. Which “OD units, binding on CD47 proprietary” value did it give?
**A.** Its value is 0.24 OD units.

Molecular target: T1, human CD47-Fc
Experiment: ELISA, CD47-Fc coated, VHH in E. coli supernatant, anti-myc detection, 450 nm
Description: ELISA was used to measure the binding of specific test antibody fragments of Example 4 to human CD47-Fc. ELISA well plates (Nunc ImmunoMaxisorp) were covered with 50 μl/well of human CD47-Fc (Biocad) (0.5 μg/ml in 1× coating carbonate buffer), sealed, and incubated overnight at 4° C. All further stages were performed in accordance with standard ELISA protocols with a high-performance automated platform based on robotic systems such as GenetixQ-pix2xt (Molecular Devices) and Tecan Freedom EVO 200 (Tecan). Non-specific binding was blocked by adding a blocking buffer BB (200 μl 0.5% fat-free milk in PBS). Plates were incubated on a shaker for 1 h at room temperature. After washing with PBS-Tween, each cell was coated with 100 μl of cell supernatant containing the test antibody fragment. The plates were incubated on a shaker for 1 hour at room temperature; further, each plate well was 5 times washed with PBS-Tween buffer. After washing, mouse anti-MYC IgG clone 9E10 (ThermoFisher Scientific) (50 μl/well) was added to PBS-Tween (1:5000). The plates were shaken in rotation shaker (50 min at room temperature) and then 5 times washed with PBS-Tween buffer as described above. After washing, anti-mouse IgG HRP conjugate (ThermoFisher Scientific) (50 μl/well) was added to PBS-Tween (1:10000). The plates were shaken in rotation shaker (50 min at room temperature) and then 5 times washed with PBS-Tween buffer as described above. Colorimetric signal was obtained by adding TMB (50 μl/well) until saturated (average of 10-12 min); further color development was blocked by adding a stop solution (25 μl/well, 1% sulfuric acid). Color signal was measured at 450 nm using a suitable Tecan-Sunrise plate reader (Tecan). Antibody binding was proportional to the signal produced.

**Q.** B1 was tested. Which “OD units, initial screening for CD47-Fc” value did it give?
**A.** Its value is 0.4 OD units.

**Q.** With B2 as the molecule, how does the “OD units, initial screening for CD47-Fc” value read?
**A.** The value was 0.319 OD units.

**Q.** Which “OD units, initial screening for CD47-Fc” value does the source give for B3 here?
**A.** Its value is 0.166 OD units.

**Q.** For B4, which “OD units, initial screening for CD47-Fc” value is on record?
**A.** The value was 0.213 OD units.

**Q.** Which “OD units, initial screening for CD47-Fc” value does the source give for B5 here?
**A.** The value was 0.127 OD units.

**Q.** For B6, which “OD units, initial screening for CD47-Fc” value is on record?
**A.** The value was 0.129 OD units.

Molecular target: T1, human CD47-Fc
Experiment: competitive ELISA, competitor SIRP-Fc; lower OD means more blocking

**Q.** Which “OD units, competitive screening to SIRP-Fc” value (“OD units … to SIRP-Fc” for short) does the source give for B1 here?
**A.** The value was 0.095 OD units.

**Q.** Which “OD units … to SIRP-Fc” value does the source give for B2 here?
**A.** Its value is 0.088 OD units.

**Q.** For B3, which “OD units … to SIRP-Fc” value is on record?
**A.** Its value is 0.143 OD units.

**Q.** With B4 as the molecule, how does the “OD units … to SIRP-Fc” value read?
**A.** Its value is 0.114 OD units.

**Q.** Which “OD units … to SIRP-Fc” value does the source give for B5 here?
**A.** Its value is 0.14 OD units.

**Q.** Which “OD units … to SIRP-Fc” value does the source give for B6 here?
**A.** The value was 0.188 OD units.
